This note sets out measurements from patent US8632988.

Experiment [1] has as its target human hemoglobin (human) (UniProt P69905). In words: cell-based or functional assay.
In experiment [2] the target is mouse hemoglobin (mouse) (UniProt P01942). In words: cell-based or functional assay.
Sequence of UniProt P01942 (P01942 2-142, chain 1 of 2): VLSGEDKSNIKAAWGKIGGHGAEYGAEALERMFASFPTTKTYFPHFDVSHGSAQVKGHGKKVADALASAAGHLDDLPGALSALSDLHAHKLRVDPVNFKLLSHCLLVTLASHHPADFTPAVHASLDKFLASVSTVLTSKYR
Sequence of UniProt P01942 (P02088 2-147, chain 2 of 2, further chain): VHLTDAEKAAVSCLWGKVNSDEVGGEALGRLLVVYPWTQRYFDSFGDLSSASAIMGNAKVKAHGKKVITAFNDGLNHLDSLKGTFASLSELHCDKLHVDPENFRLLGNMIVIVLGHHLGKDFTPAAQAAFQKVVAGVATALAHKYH

Sequence of UniProt P69905 (P69905 2-142, chain 1 of 2): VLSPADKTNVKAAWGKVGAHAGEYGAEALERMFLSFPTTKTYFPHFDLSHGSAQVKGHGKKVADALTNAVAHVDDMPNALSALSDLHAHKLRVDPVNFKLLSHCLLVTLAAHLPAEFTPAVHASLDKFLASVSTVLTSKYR
Sequence of UniProt P69905 (P68871 2-147, chain 2 of 2, further chain): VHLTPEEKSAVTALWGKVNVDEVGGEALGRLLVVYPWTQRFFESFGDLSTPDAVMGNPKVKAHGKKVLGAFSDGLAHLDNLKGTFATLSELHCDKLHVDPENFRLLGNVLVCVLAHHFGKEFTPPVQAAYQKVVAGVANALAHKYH

“IsdB on the cell wall of iron-starved S. aureus strain Newman (from UniProt A6QG30 41-613) (receptor)”: the results for the time at which growth appears around hemoglobin disks on iron-deficient solid medium in experiment [1] and in experiment [2] were 24 h and 72 h, respectively.
